± gives the standard deviation of the averaged measurements.
Test system: ATP
Assay: switch fluorescence ratio, 500 uM ATP over buffer (Cy3 cluster intensity, sum of 5 cycles each) (fold (ratio)); higher = stronger signal-on switching upon ATP binding; sequences stand for … in TCGTCGGCAGCGTCAGATGTGTATAAGAGACAGTTTTTTTTTTTTTTTTTTTTTTTTT…TC
Settings: aptamer strand: ATP DNA aptamer (quencher-CACCTGGGGGAGTATTGCGGAGGAAGG + anchor), 100 nM annealed; ATP concentration: 500 uM
Summary of the method: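 For every switch-domain sequence, the fluorescence ratio is the mean of per-cluster values, each being summed target-cycle Cy3 intensity over summed buffer-cycle Cy3 intensity. Clusters outside 100-1000 RFU were excluded. On a modified Illumina MiSeq flow-cell, the Cy3-labelled switching-strand clusters were annealed to 100 nM quencher-labelled ATP aptamer, imaged in selection buffer and then after 15 min with 500 uM ATP at 22 °C. Five such cycles were run, with NaOH stripping and re-annealing between them.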
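Also: ATP exposure 15 min at 22 °C before imaging.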

| Sequence | switch fluorescence ratio |
| --- | --- |
| AAATCAAATT | 1.007 ± 0.0055 |
| TACGCGTGGG | 1.004 ± 0.0084 |
| TTGGCGGGGT | 1.04 ± 0.081 |
| CCATGCACTG | 1.017 ± 0.0028 |
| GGTTACGTAG | 1.045 ± 0.0078 |
| ATAACGTTTT | 1.02 ± 0.019 |
| TATAATTCTG | 1.04 ± 0.029 |
| TTTACAGGGT | 1.03 ± 0.036 |
| GATTTTGGAT | 0.994 ± 0.012 |
| ACCAGTGTCA | 1.02 ± 0.021 |
| GAGGTACTTG | 0.975 ± 0.039 |
| GAATTAAATA | 1.02 ± 0.018 |
| GAAAGGAATG | 1.041 ± 0.007 |
| TGTTAATTGG | 1.02 ± 0.043 |
| TCTCCAGGAA | 1.62 ± 0.3 |
| CTAGTGGGTT | 0.973 ± 0.02 |
| GAACTGCATA | 1.09 ± 0.085 |
| CGGGTCGGCA | 1.03 ± 0.017 |
| AAAGGATAAT | 1.01 ± 0.0077 |
| CGGTCGAGGT | 0.993 ± 0.038 |
| GCGGAAAGGC | 1.01 ± 0.0025 |
| TAACGTTTTC | 0.983 ± 0.06 |
| AAGTGGTCCT | 0.996 ± 0.018 |
| AACAGGCGAT | 0.985 ± 0.034 |
| AACGGTACGG | 1.03 ± 0.045 |

| Sequence | switch fluorescence ratio |
| --- | --- |
| GACAGGGGTT | 1.04 ± 0.015 |
| TTGAGTTACT | 0.981 ± 0.063 |
| GGGTGTTCTT | 0.997 ± 0.034 |
| CGGGAAGAGC | 1.033 ± 0.0043 |
| GAGTGACGGA | 1 ± 0.054 |
| TTTAACGTTT | 0.979 ± 0.0061 |
| TGGAGGGGAT | 1.02 ± 0.075 |
| CAGGTTACGC | 1.01 ± 0.027 |
| TTCGACGGTT | 1.03 ± 0.033 |
| GGTTAAACTT | 1.02 ± 0.012 |
| ATAGGCAGAG | 1.003 ± 0.0083 |
| AAGGGCTTCC | 1.98 ± 0.038 |
| CCATCTATCG | 1.03 ± 0.026 |
| TTGGGTATAG | 1.02 ± 0.028 |
| ATGGGCGAGC | 0.981 ± 0.046 |
| GCGATTGTAA | 0.985 ± 0.024 |
| TATTTTGGAA | 0.986 ± 0.044 |
| TCTCCGTGGG | 1.52 ± 0.37 |
| CGATCTTGGA | 0.94 ± 0.065 |
| GGATTGTAAG | 0.991 ± 0.032 |
| AGGGCGTTAG | 1.01 ± 0.044 |
| CGCCGCTGGG | 1.993 ± 0.0075 |
| TTGGGTAGTG | 0.993 ± 0.031 |
| TCTGGGAAAA | 0.918 ± 0.037 |
| AAGCTTCTGT | 1.023 ± 0.0057 |

| Sequence | switch fluorescence ratio |
| --- | --- |
| GTGGGGGCTT | 0.947 ± 0.021 |
| TGTGGGAGCG | 0.9542 ± 0.0021 |
| ATAATTCATC | 1 ± 0.013 |
| CACCTACATG | 1.21 ± 0.031 |
| TAATTGTGTG | 1 ± 0.038 |
| CATAAAAGAT | 1.01 ± 0.017 |
| AATAGGCGCG | 1.02 ± 0.014 |
| CAGGGTTGGT | 0.977 ± 0.033 |
| TATTGGTTCA | 0.996 ± 0.018 |
| GGCCCGGTGC | 1.08 ± 0.12 |
| AAGCGGGTCG | 1.03 ± 0.049 |
| AAGTACGGCC | 1.16 ± 0.025 |
| CGGGTTAAT | 1 ± 0.041 |
| TGCATAGGGG | 0.999 ± 0.018 |
| ACTATAGGAC | 1.07 ± 0.017 |
| TTTGTTGAAA | 1.02 ± 0.018 |
| CACGTTCAGC | 1.04 ± 0.035 |
| AAAGCCGCTG | 1.02 ± 0.033 |
| TGAAGGTAAA | 1.02 ± 0.042 |
| TGCAGAGGGC | 1.03 ± 0.02 |
| TCAATTTTGT | 0.997 ± 0.022 |
| TTAAAAAACT | 1.02 ± 0.031 |
| TGGATCATGG | 0.9753 ± 0.009 |
| CGATTTTGGC | 0.962 ± 0.049 |
| TATGGGTAAT | 0.975 ± 0.016 |

| Sequence | switch fluorescence ratio |
| --- | --- |
| ACCTCATTAA | 1.03 ± 0.015 |
| TCCGTTTGTT | 0.991 ± 0.04 |
| AAGGGGCTCT | 0.993 ± 0.033 |
| GGTGTTAAGA | 1.01 ± 0.0043 |
| TTGTTAGTTT | 0.983 ± 0.032 |
| GCTGAGAGGC | 1 ± 0.038 |
| GCTTAAATTT | 1 ± 0.016 |
| AAGCGGTTTT | 1 ± 0.019 |
| ACTATCTTTG | 0.9924 ± 0.0098 |
| ATATCGGATG | 1.071 ± 0.0078 |
| GATTTATACT | 1.06 ± 0.014 |
| GATGGCAGCG | 1.05 ± 0.045 |
| TTGCCAAGGT | 1 ± 0.013 |
| TTAAGAAAAG | 1.1 ± 0.065 |
| TCATGGGTGG | 0.99 ± 0.02 |
| ATGGGGCTCT | 0.9967 ± 0.0067 |
| TTTTGAGTAG | 0.987 ± 0.021 |
| GGGTATAGGG | 1.01 ± 0.037 |
| CCGGCGGTTG | 1 ± 0.012 |
| TTTGATGTAG | 1.01 ± 0.011 |
| CATTGGGTGT | 1.03 ± 0.0098 |
| CTGAGCGATT | 1.41 ± 0.032 |
| GAAGATGAGG | 1 ± 0.028 |
| TTTGGGATGG | 0.983 ± 0.046 |
| AGAGTGGGGG | 0.971 ± 0.065 |
